Experiments:
[1] = biological target: Toll-like receptor-7 (TLR7) (murine) (UniProt P58681); assay: cell-based or functional assay
[2] = tested on: Murine macrophage lines (RAW264.7, J774.A1 or RAW264NO-); assay: Phagocytosis assay in vitro (uptake of Alexa Fluor 488-labeled particles); assay type: cell-based
Method: Phagocytosis Assay in vitro. RAW 264.7, RAW264.7 (NO-) and J774A.1 cells were cultured in DMEM or RPMI (RAW NO-) with 10% FCS, harvested, and washed. 3×10^5 cells/well were incubated in serum-free Earle's minimal essential medium (EMEM) in a 24-well plate for 1 hour at 37° C. Alexa Fluor® 488-labeled particles (inert polystyrene microspheres; or yeast, Saccharomyces cerevisiae or Gram-negative bacteria, Escherichia coli, 40 particles/macrophage) were added and co-incubated in a dark environment for 60 minutes in serum free EMEM with or without HSPs, LPS, or control proteins. At the end of 60 minutes incubation, the plate was covered in a dark container on ice. Specific measures were taken to exclude the fluorescence that resulted from particles that were outside of the cell or sticking to the surface of the cell. […] Specifically, trypan blue (0.8 mg/ml) was added for 60 seconds and plates were analyzed immediately using FluorImager SI (Molecular Dynamics/Amersham). Since the emission of Alexa Fluor® 488, about 519 nm at an excitation of about 490 nm, falls within the absorbance range of trypan blue (475-675 nm), the fluorescence of the sample only represents the intracellular fluorescence. External or surface-bound fluorescence is quenched. Using Student's t test, the results were analyzed and P-values were calculated.
HSP-mediated phagocytosis was quantified by measuring the internalized fluorescence measured by FluorImager SI and Relative Mean Fluorescence Intensity (RMFI) was compared between the treatment groups (as indicated). All the treatment groups were compared to medium alone using the Student's t test and significance denoted by P<0.01. The error bar represents one standard deviation. The results shown are a cumulative analysis of 3 experiments, 3 wells/group.

[3] = tested on: CD4+ T cells purified from spleens of DO 11.10 mice; assay: Proliferation of CD4+ T cells after MHC-II presentation of OVA-coated yeast by macrophages (FACS); assay type: cell-based; conditions: cytochalasin-D treatment
Method: Proliferation of CD4+ T cells and INF-γ (interferon gamma) release. Unlabeled S. cerevisiae (80 μg) was incubated with excess chicken ovary albumin (OVA) at 37° C. for 1 hour and washed repeatedly to eliminate free OVA protein. S. cerevisiae-OVA complexes (OVA-coated yeast) were administered to macrophages treated with or without HSP70. Macrophages were then washed and irradiated at 12,000 rads and assessed for viability by trypan blue exclusion. Subsequently, they were co-cultured with CD4+ T lymphocytes that were purified from spleens of DO 11.10 mice and labeled with carboxyfluoroscein succinimidyl ester (CSFE). […] Following the 48-hour incubation, proliferation of CD4+ cells was determined with FACS and IFN-γ release in the supernatant was tested by enzyme-linked immunosorbent assay (ELISA; Pierce, Ill.).
Alexafluor labeled S. cerevisiae were coated with whole ovalbumin (OVA) protein 1 mg/ml by co-incubation at 37° C. for 20 minutes and washed until free OVA protein was removed (washes were tested by gel electrophoresis using SDS-PAGE and immunoblotting). […] Resultant proliferation of the CSFE-labeled CD4+ was measured by FACS as an indirect measure of the amount of OVA protein processed and its peptide epitope presented in context of MHC-II. […]

TNF-α = assay: Wound lysate cytokine production (cytometric bead assay), TNF-α; assay type: in vivo, mice; conditions: SC 30 μg dose
Method: Wound and Skin Lysate Cytokine Production. Mice were wounded and treated as stated previously. Wounds were harvested 24 hours after treatment, pulverized in 5 ml of PBS and large debris was removed by straining the wound lysate through a […] mesh strainer. The soluble fraction was then centrifuged for 20 minutes at 14,000 rpm. Protein concentration was then assessed by Bradford assay. Skin samples were taken and processed in the same manner. 250 μg of each sample was then tested for the presence of monocyte chemotactic peptide-1 (MCP-1), tumor necrosis factor-α (TNF-α), and interleukin 6 (IL-6) using the BD Biosciences cytometric bead assay (CBA) mouse inflammatory kit (BD Biosciences Pharmingen, San Diego, and CA.) following the manufacture's protocol.
The wounds were lysed and MCP-1, TNFα and IL-6 levels were quantified (pg/ml of 250 μg of protein). Each sample was tested in duplicate. *P values are the significant difference of cytokines found in wound lysate compared to skin lysate in a treatment group. **P values are the significant differences of cytokines found in PBS treated mice wound lysate compared to the treatment group wound lysate.

[4] = tested on: full thickness surgical wounds on the dorsum of BALB/cJ mice; assay: Closure of full thickness surgical wounds, percent wound closure; assay type: in vivo
Method: Surgery and Treatment. Mice were anesthetized using Ketamine (2.0 mg/mouse) and Xylazine (0.1 mg/mouse) were administered intraperitoneally (IP) and the dorsal skin was shaved. After sterile prepping of the area, a full thickness circular wound, 8 mm diameter, was made on the dorsal skin using a disposable biopsy punch (Miltex Inc, York, Pa.) on the midline of the dorsum approximately at the iliac crest. The mice were then randomly assigned into the treatment groups. Initial wound measurements were performed while the mice were still anesthetized. Mice were then treated on days 0, 2, 4, and 6 unless otherwise specified. All agents used as treatment were diluted in 0.5 ml of PBS and injected using a 25-gauge needle in the subcutaneous space in the nape of the neck. The surgical procedures, post-operative monitoring, and safety concerns were approved by the Institutional Animal Care and Usage Committee.
Measurements and Analysis. Wound healing of open wounds is a complex process with many parameters to consider. […] The wound surface area was determined by measuring the craniocaudal and lateromedial distances using vernier calipers in perpendicular axis on days 0, 2, 4, 6, 9, and 11 postoperatively unless noted. Changes in wound area were expressed as percent wound closure. Wound closure data was plotted as average percent wound closure ±SEM unless otherwise noted. All calculations and data analysis were performed using Microsoft Excel and Sigma Plot. Sigma Plot was used to perform Student's t-tests for reported P values.
Full thickness surgical wounds were created on the dorsum of BALB/cJ mice as described in Methods. Wounds were made on day 0. Subsequently, the wounds were treated with exogenous injections of HSP70, HSP90, gp96 (30 μg/dose) or buffer administered subcutaneously (SC) on days 0, 2, 4 and 6 following surgery (FIG. 6A). The wounds were measured on days 0, 2, 4, 6, 9, 11 unless otherwise noted. Wounds were measured serially, percent wound closure was calculated and plotted against time in order to quantitate the rate of healing by secondary intention. […] Data is plotted as average percent wound closure ±SEM on days indicated. Two mice from each treatment group (PBS (n=12), HSP70 (n=11), HSP90 (n=12), and gp96 (n=11)) were sacrificed for histology on days 2, 4, and 6 post-surgery (data not shown). The P values obtain using the Student's t-test.
Results are of average percent wound closure ±SEM on day 2 post surgery. The *P values were obtained using the Student's t-test by comparing HSP treatment to all of the non-HSP control treatments. The least significant P value was reported. […] Doses higher than 50 μg/dose were not tested.

Sequence of Toll-like receptor-7 (TLR7) (murine) (P58681 27-1050): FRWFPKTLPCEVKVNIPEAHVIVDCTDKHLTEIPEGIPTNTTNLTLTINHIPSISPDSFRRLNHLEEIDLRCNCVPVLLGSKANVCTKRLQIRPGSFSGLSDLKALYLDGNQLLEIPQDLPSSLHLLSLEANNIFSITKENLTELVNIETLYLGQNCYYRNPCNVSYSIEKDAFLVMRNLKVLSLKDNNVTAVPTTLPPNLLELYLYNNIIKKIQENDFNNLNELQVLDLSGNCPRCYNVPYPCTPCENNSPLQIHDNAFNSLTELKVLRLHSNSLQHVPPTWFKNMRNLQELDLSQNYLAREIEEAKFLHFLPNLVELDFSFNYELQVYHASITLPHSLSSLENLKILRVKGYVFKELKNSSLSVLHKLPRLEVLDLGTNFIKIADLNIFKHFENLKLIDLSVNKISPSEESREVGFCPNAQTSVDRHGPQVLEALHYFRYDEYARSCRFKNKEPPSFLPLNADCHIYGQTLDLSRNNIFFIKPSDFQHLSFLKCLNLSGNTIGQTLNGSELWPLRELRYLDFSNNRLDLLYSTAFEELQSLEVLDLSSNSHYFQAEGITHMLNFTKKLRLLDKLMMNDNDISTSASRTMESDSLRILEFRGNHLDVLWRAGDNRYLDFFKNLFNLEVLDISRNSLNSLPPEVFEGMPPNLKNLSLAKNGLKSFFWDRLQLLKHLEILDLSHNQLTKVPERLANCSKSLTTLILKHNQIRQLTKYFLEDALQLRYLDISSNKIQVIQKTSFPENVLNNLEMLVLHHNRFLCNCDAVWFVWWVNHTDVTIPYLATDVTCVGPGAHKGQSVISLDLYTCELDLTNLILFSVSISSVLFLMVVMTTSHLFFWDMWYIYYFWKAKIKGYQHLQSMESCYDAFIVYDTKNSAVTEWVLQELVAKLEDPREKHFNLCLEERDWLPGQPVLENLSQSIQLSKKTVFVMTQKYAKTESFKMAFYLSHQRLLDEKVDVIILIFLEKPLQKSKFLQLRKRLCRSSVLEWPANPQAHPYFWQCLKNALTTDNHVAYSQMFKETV

## HSP70 purified from murine livers (from UniProt P17879 2-642)
[1]
  decrease in phagocytic activity of RAW264.7 cells treated with HSP70 in the presence of known TLR7-ligands, compared with HSP70 alone: 45 to 65%

## C=C1[C@@H](C)[C@H]2[C@H](Cc3ccccc3)NC(=O)[C@]23[C@H](OC(C)=O)/C=C/[C@@](C)(O)C(=O)[C@@H](C)C/C=C/[C@H]3[C@@H]1O [cytochalasin-D, reference compound]
[2]; cytochalasin-D 4 μM with HSP70
  effect on HSP70-mediated internalization (actin polymerization inhibited): showed inhibition of the effects of HSP70
[3]
  effect on CD4+ proliferation caused by HSP70-treatment: abrogated the proliferation caused by HSP70-treatment

B1: gp96: heat shock protein (HSP90 family, endoplasmic reticulum) purified from murine livers (protein, UniProt P08113 22-802, looked up)
Endoplasmin: DDEVDVDGTVEEDLGKSREGSRTDDEVVQREEEAIQLDGLNASQIRELREKSEKFAFQAEVNRMMKLIINSLYKNKEIFLRELISNASDALDKIRLISLTDENALAGNEELTVKIKCDKEKNLLHVTDTGVGMTREELVKNLGTIAKSGTSEFLNKMTEAQEDGQSTSELIGQFGVGFYSAFLVADKVIVTSKHNNDTQHIWESDSNEFSVIADPRGNTLGRGTTITLVLKEEASDYLELDTIKNLVRKYSQFINFPIYVWSSKTETVEEPLEEDEAAKEEKEESDDEAAVEEEEEEKKPKTKKVEKTVWDWELMNDIKPIWQRPSKEVEEDEYKAFYKSFSKESDDPMAYIHFTAEGEVTFKSILFVPTSAPRGLFDEYGSKKSDYIKLYVRRVFITDDFHDMMPKYLNFVKGVVDSDDLPLNVSRETLQQHKLLKVIRKKLVRKTLDMIKKIADEKYNDTFWKEFGTNIKLGVIEDHSNRTRLAKLLRFQSSHHSTDITSLDQYVERMKEKQDKIYFMAGSSRKEAESSPFVERLLKKGYEVIYLTEPVDEYCIQALPEFDGKRFQNVAKEGVKFDESEKTKESREATEKEFEPLLNWMKDKALKDKIEKAVVSQRLTESPCALVASQYGWSGNMERIMKAQAYQTGKDISTNYYASQKKTFEINPRHPLIRDMLRRIKEDEDDKTVMDLAVVLFETATLRSGYLLPDTKAYGDRIERMLRLSLNIDPEAQVEEEPEEEPEDTSEDAEDSEQDEGEEMDAGTEEEEEETEKESTEKDEL
modifications: complexed with endogenous peptides
notes: heat shock protein (HSP90 family, endoplasmic reticulum) purified from murine livers
TNF-α
  TNF-α content of wounds compared to LPS or MSA: not significantly elevated
  TNF-α content of wounds compared to buffer group: significantly increased
[4]; 5 μg/dose and 50 μg/dose, day 2
  wound closure compared to controls: significant wound closure
[4]; 30 μg/dose SC on days 0, 2, 4 and 6
  wound healing at Day 11: completely healed
[4]; doses 5, 30, 50 μg/dose tested
  dose with the most significant difference in wound closure: 30 μg/dose
[2]; HSPs 100 μg/ml, P<0.01 vs medium alone
  uptake of microbial or non-microbial materials as compared to control proteins or buffer: increase in uptake
